Laboratory results taken from the RNAGym collection of RNA variant scans (doi:10.1093/nar/gkz1192).

B1: CPEB3 Ribozyme (parent)
chain: UAACAGGGGGCCACAGCAGAAGCGUUCACGUCGCAGCCCCUGUCAGAUUCUGGUGAAUCUGCGAAUUCUGCUGUAUAUCUC

Variants of: B1
Assay: self-cleavage, relative activity (ratio to wild type); higher = more cleavage; in vitro, sequencing
Procedure, shortened: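 Relative activity compares each variant's cleaved/total read fraction with that of the unmutated ribozyme. To get these fractions, barcoded CPEB3 ribozyme libraries from rounds of error-prone PCR were transcribed with T7 RNA polymerase for 5 hours at 37°C and then given 15 min of DNase I treatment before EDTA was added. The RNAs were reverse transcribed with template switching and sequenced on Illumina, and DNA sequencing linked barcodes to variants. A minimum of 5 reads applied, and three batches were averaged.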

Row | Variant | self-cleavage
1 | U1A | 0.98
2 | U1A A2G | 0.87
3 | U1A A2U | 1.09
4 | U1A A3C | 1.09
5 | U1A A3G | 1.1
6 | U1A A3U | 1.2
7 | U1A A5G | 0.68
8 | U1A A5U | 0.97
9 | U1A A13G | 0.8
10 | U1A A13U | 1.16
11 | U1A A15G | 0.72
12 | U1A A15U | 0.69
13 | U1A A18C | 0.53
14 | U1A A18G | 0.57
15 | U1A A18U | 0.41
16 | U1A A20G | 0.72
17 | U1A A20U | 0.32
18 | U1A A21C | 0.28
19 | U1A A21G | 0.55
20 | U1A A21U | 0.27
21 | U1A A28U | 0.88
22 | U1A A35G | 1.25
23 | U1A A35U | 0.49
24 | U1A A45G | 0.75

Row | Variant | self-cleavage
25 | U1A A45U | 0.41
26 | U1A A47G | 1.01
27 | U1A A47U | 0.78
28 | U1A A56G | 0.71
29 | U1A A56U | 0.61
30 | U1A A57G | 0.77
31 | U1A A64G | 0.84
32 | U1A A64U | 0.28
33 | U1A A65C | 0.12
34 | U1A A65G | 0.48
35 | U1A A75G | 0.9
36 | U1A A75U | 1.14
37 | U1A A77G | 1.12
38 | U1A A77U | 1.05
39 | U1A C11G | 0.49
40 | U1A C11U | 0.46
41 | U1A C12A | 1.14
42 | U1A C12G | 0.43
43 | U1A C12U | 1.2
44 | U1A C14A | 1.17
45 | U1A C23G | 0.1
46 | U1A C23U | 0.22
47 | U1A C27A | 0.22
48 | U1A C29U | 0.52

Row | Variant | self-cleavage
49 | U1A C32G | 0.09
50 | U1A C32U | 0.3
51 | U1A C37A | 0.31
52 | U1A C37G | 1.04
53 | U1A C38A | 0.35
54 | U1A C38G | 0.45
55 | U1A C38U | 0.97
56 | U1A C50A | 0.47
57 | U1A C59U | 0.46
58 | U1A C68A | 0.41
59 | U1A C68U | 0.82
60 | U1A C81U | 1.11
61 | U1A G6A | 0.27
62 | U1A G7A | 0.1
63 | U1A G7U | 0.3
64 | U1A G8A | 0.19
65 | U1A G9A | 0.28
66 | U1A G9C | 0.1
67 | U1A G10A | 0.25
68 | U1A G10C | 0.36
69 | U1A G16A | 0.38
70 | U1A G22A | 0.23
71 | U1A G24A | 0.25
72 | U1A G30A | 0.11

Row | Variant | self-cleavage
73 | U1A G33A | 0.28
74 | U1A G36A | 0.29
75 | U1A G36C | 0.09
76 | U1A G46A | 0.43
77 | U1A G52A | 1.1
78 | U1A G61C | 0.29
79 | U1A G63A | 0.89
80 | U1A G73A | 1.21
81 | U1A G73U | 1.44
82 | U1A U25A | 0.34
83 | U1A U25C | 0.41
84 | U1A U26A | 1.02
85 | U1A U26C | 0.47
86 | U1A U31A | 0.64
87 | U1A U31C | 0.65
88 | U1A U41A | 0.2
89 | U1A U41C | 0.89
90 | U1A U41G | 0.27
91 | U1A U43A | 1.08
92 | U1A U43C | 0.58
93 | U1A U43G | 0.54
94 | U1A U48C | 0.63
95 | U1A U49A | 0.58
96 | U1A U49C | 0.52

Row | Variant | self-cleavage
97 | U1A U51A | 0.95
98 | U1A U51C | 0.92
99 | U1A U54A | 1.14
100 | U1A U54C | 1.08
101 | U1A U54G | 0.76
102 | U1A U58A | 0.29
103 | U1A U58C | 0.66
104 | U1A U60A | 0.56
105 | U1A U60C | 0.35
106 | U1A U66A | 0.42
107 | U1A U66C | 0.4
108 | U1A U67C | 0.18
109 | U1A U69A | 0.54
110 | U1A U69C | 0.61
111 | U1A U72A | 0.55
112 | U1A U72C | 1.02
113 | U1A U72G | 0.75
114 | U1A U74A | 1.25
115 | U1A U74C | 1.18
116 | U1A U76C | 1.04
117 | U1A U78A | 0.99
118 | U1A U78C | 0.91
119 | U1A U80C | 1.14
120 | U1C | 0.84

Row | Variant | self-cleavage
121 | U1C A2C | 0.94
122 | U1C A2G | 0.8
123 | U1C A2U | 1.04
124 | U1C A3G | 0.9
125 | U1C A3U | 0.83
126 | U1C A5C | 0.82
127 | U1C A5G | 0.68
128 | U1C A5U | 1.02
129 | U1C A13G | 0.79
130 | U1C A13U | 1.13
131 | U1C A15C | 0.62
132 | U1C A15G | 0.6
133 | U1C A15U | 0.55
134 | U1C A18C | 1.09
135 | U1C A18G | 0.48
136 | U1C A18U | 0.36
137 | U1C A20G | 0.59
138 | U1C A20U | 0.29
139 | U1C A21C | 0.35
140 | U1C A21G | 0.24
141 | U1C A21U | 0.3
142 | U1C A28G | 0.55
143 | U1C A28U | 0.67
144 | U1C A35C | 0.71

Row | Variant | self-cleavage
145 | U1C A35G | 1.24
146 | U1C A35U | 0.33
147 | U1C A45C | 0.16
148 | U1C A45G | 0.81
149 | U1C A45U | 0.39
150 | U1C A47G | 0.9
151 | U1C A47U | 0.47
152 | U1C A56G | 0.73
153 | U1C A56U | 0.52
154 | U1C A57G | 0.85
155 | U1C A64G | 0.8
156 | U1C A64U | 0.26
157 | U1C A65G | 0.42
158 | U1C A65U | 0.31
159 | U1C A75G | 0.79
160 | U1C A75U | 1.05
161 | U1C A77G | 0.91
162 | U1C A77U | 0.97
163 | U1C C11G | 0.43
164 | U1C C11U | 0.36
165 | U1C C12U | 1.22
166 | U1C C14U | 1.07
167 | U1C C23A | 0.22
